Among the data in the RNAGym collection of RNA variant scans (doi:10.7554/elife.80360) are self-cleavage values, retold here.

To fix the notation:
B1: Hairpin Ribozyme (parent)
chain: GUCCUCUUUCACGUGCGCGUGAAAGAGAGAAGUGAACCAGAGAAACACACGUUGUGGUAUAUUACCUGGUA

In this series the parent is B1. Description: self-cleavage, relative activity (ratio to wild type); higher = more cleavage; co-transcriptional.
As for G19C A35G, the self-cleavage was determined as 0.74.

With C18A U58A, the self-cleavage worked out at 0.577. As to C18A U58G, the self-cleavage stood at 0.652. With C18G G25U the figure was 0.47; with C18G G25C, 0.454. The result for G19A A28C reads 0.417; that for C18G A36C, 0.473. On to C18G G69U, for which the self-cleavage amounted to 0.162. With G19A G34C the figure was 1.32; with G19A G34U, 1.18; with G19A G34A, 1.02. Consider G19C A39U, for which the self-cleavage amounted to 0.441. On to G19C A39C, for which the self-cleavage is 0.44. For the variant G19A A45G, the self-cleavage was 0.195. For the variant G19A A45C, the self-cleavage was found to be 0.108.

For the variant G19C G51U, the self-cleavage stood at 0.973. With G19C G51C the figure was 0.775; with G19C G51A, 0.903. The result for C18U A28U reads 0.606; that for C18U A28C, 0.66; that for G19C G32U, 0.173.

With C18U U52C, the self-cleavage worked out at 0.928. Turning to C18U U52G, the self-cleavage is 0.859. Take G19C G34U: the self-cleavage was 1.45. The result for C18A U20C reads 0.97; that for C18A U70A, 0.916; that for G19A U67G, 0.199. As to G17U U33A, the self-cleavage came to 0.116. As for C18U A35U, the self-cleavage was 0.802.

For the variant G19A A47C, the self-cleavage amounted to 0.308. The result for C18U G57C reads 0.157.

For G17U U52G, the self-cleavage was determined as 0.8. With G17U U52A the figure was 1.21; with C18G U33G, 0.123. The result for C18G U33C reads 0.164.

For G19A A36G, the self-cleavage amounted to 0.997.

For G19C A45U, the self-cleavage is 0.142.

Take C18U G34A: the self-cleavage is 1.3.

On to G19A C66A, for which the self-cleavage came to 0.314. As for G19A C66U, the self-cleavage is 0.344. Turning to G19A C66G, the self-cleavage stood at 0.168. As to G19A U58C, the self-cleavage worked out at 0.856. With C18G A49G the figure was 0.344; with C18U A24U, 0.844; with C18U A24G, 1.04.

For the variant G17U G54A, the self-cleavage worked out at 0.642. The result for G17U G54U reads 0.579. The result for G19C U53G reads 0.566; that for C18A U55G, 0.296; that for C18A U55A, 0.364.

For the variant C18A A39C, the self-cleavage is 0.538. Regarding C18A A39U, the self-cleavage is 0.345. With G19C A47C the figure was 0.207. The result for G19C A47U reads 0.152; that for G17U A39G, 0.29; that for G19A U52A, 0.809. For the variant G19C G57C, the self-cleavage was found to be 0.25. Consider G19C G57U, for which the self-cleavage came to 0.275. With G19A A59G the figure was 0.2. The result for C18G G29C reads 0.133; that for G19C G21A, 0.657; that for G17U G21A, 0.491. The result for C18A G69U reads 0.339; that for C18A G69C, 0.403. Take C18U C37A: the self-cleavage is 0.329. With C18U C37G the figure was 0.352; with G17U C38G, 0.158. The result for C18G G57C reads 0.194.

Consider G17U A49C, for which the self-cleavage was 0.177. With C18A G27U the figure was 0.332; with G17U C65G, 0.269; with G17U C65A, 0.892. With G19A G57U the figure was 0.289; with C18G C38U, 0.44.

As to C18G G21C, the self-cleavage stood at 0.706. For C18G G21U, the self-cleavage stood at 0.651. The result for G17U G27A reads 0.374; that for G17U G27U, 0.239; that for G17U G27C, 0.165. The result for G19A A71C reads 1.38; that for G19C A61C, 0.333; that for C18G C46U, 0.0966. For G19C G29U, the self-cleavage was 0.159. The result for G17U G29C reads 0.105; that for C18A A35C, 1.2; that for C18G A30C, 0.275. The result for C18G A30U reads 0.0888; that for C18U G56A, 0.135. Consider C18U A22U, for which the self-cleavage worked out at 1.1.

As to C18U A22G, the self-cleavage came to 0.784. The result for C18U A22C reads 0.949; that for C18U A23C, 0.898.

Regarding C18U A23U, the self-cleavage came out at 0.997.

For G19A A24G, the self-cleavage stood at 0.737. The result for G17U C50A reads 0.232; that for G17U C50U, 0.326; that for C18U A43C, 0.164. The result for C18U C38U reads 0.529; that for G17U G19A, 0.629. The result for G19U A36C reads 0.554.

Take G19U A36U: the self-cleavage was 0.628.

For G19U A36G, the self-cleavage was 1.

Regarding C18A A30U, the self-cleavage turned out to be 0.16.

In the case of G19C A36U, the self-cleavage is 0.603.

As to C18G A28G, the self-cleavage came out at 1.11. Turning to C18G A28C, the self-cleavage is 0.445. With C18A C48G the figure was 0.0794.

As to C18G G19A, the self-cleavage came out at 0.907. With C18G G19U the figure was 0.88; with C18A G56C, 0.136; with C18G G68C, 0.266. The result for G19C A30C reads 0.221; that for G19A G56A, 0.124. With G19A G56C the figure was 0.136; with G19C A71C, 1.24. With G19C C66A, the self-cleavage stood at 0.238. Take G19C C66U: the self-cleavage is 0.528.

As to C18A A22U, the self-cleavage was determined as 0.794.

On to C18A A22C, for which the self-cleavage is 1.04. Consider C18G A26G, for which the self-cleavage worked out at 0.828.

Regarding C18U A36U, the self-cleavage was determined as 0.634. The result for C18U A36C reads 0.65; that for C18G A44G, 0.113. The result for C18G U62C reads 0.2; that for C18G U62A, 0.2; that for C18U U60C, 1.28.

Consider C18U U60G, for which the self-cleavage was 0.719. The result for G19U A43G reads 0.136; that for G19C A22C, 0.702. G19C A22G: the self-cleavage came to 0.866. The result for G19A G42A reads 0.202. The result for G19C A43G reads 0.219; that for G19A G25A, 0.368.

As for G19C G40C, the self-cleavage was 0.191. The result for G17U G56A reads 0.194; that for G17U G56C, 0.126. The result for C18U G19U reads 1.1. Regarding C18U A30U, the self-cleavage came to 0.203.

For G17U U55G, the self-cleavage was 0.351. Consider C18G A43G, for which the self-cleavage came to 0.0801. The result for C18G A23C reads 0.746; that for C18U A71U, 0.832. With C18G G42A the figure was 0.179; with C18G G42U, 0.279; with C18G A39U, 0.474. With C18G A39G the figure was 0.281; with C18G A39C, 0.587; with C18U U62A, 0.225.

In the case of C18U G42C, the self-cleavage is 0.416. With C18U G42A the figure was 0.167. With G19C C50G the figure was 0.196. The result for G19C C50U reads 0.397; that for G19A C37A, 0.264.

With G17U A47C, the self-cleavage was 0.347. Regarding G19A U63A, the self-cleavage came out at 0.104.

As to G19A U63C, the self-cleavage came out at 0.213. Regarding G19A A26U, the self-cleavage was found to be 0.563. With C18A A36C the figure was 0.711; with G17U A64C, 0.245. With G17U A64U the figure was 0.16; with C18G A47G, 0.198. With C18A G68A the figure was 0.272; with C18A A44C, 0.219. Consider G19C C38G, for which the self-cleavage was 0.142.

Take G19C C37U: the self-cleavage is 0.454. The result for G19C C37A reads 0.32; that for G19C C37G, 0.356.
